Reference: patent US20240252614A1 (Pfizer, published 2024)

What was measured:
PIV1069 = biological target: T1, PIV1069 (PIV1); experiment: BLI, 56C stress;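 note: binding of thermally stressed PIV1 F mutant supernatant to mAb on AHC biosensors for 5 min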
T1 construct: F113G, F114S, A466L, S473L, G134A
Description: (§1) The OCTET HTX (Sartorius, Gottingen, Germany) instrument was used to evaluate the expression and conformational integrity for each mutant. All measurements were conducted at 30° C. temperature in 96-well black plates (Corning, Corning, NY) with a final volume of 240 μL per well at a constant agitation rate of 1000 RPM.
(§2) Conformation integrity of PIV1 F protein mutants were evaluated by a thermal stress experiment. Crude cell culture supernatants were normalized based on the results of the titer quantitation and then incubated for 1 hour at room temperature and two higher temperatures. For the initial testing of PIV1 mutants, the two temperatures were 50° C. and 53° C. […] Anti-Human IgG Fc Capture (AHC) biosensors were first equilibrated in PB for before being dipped into more PB to establish the initial baseline. […] The mAb-bound biosensors were then dipped into the thermal stresses cell culture supernatants for 5 minutes.

PIV1070 = biological target: T2, PIV1070 (PIV1); experiment: BLI, 56C stress;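 note: binding of thermally stressed PIV1 F mutant supernatant to mAb on AHC biosensors for 5 min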
T2 construct: F113G, F114S, A466I, S473I, G134A
Description: as §1, §2

[1] = biological target: T3, PIV1 F literature prefusion comparison (PIV1); experiment: BLI, 56C stress;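 note: binding of thermally stressed PIV1 F mutant supernatant to mAb on AHC biosensors for 5 min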
T3 construct: F113G, F114S, A466I, S473I (Stewart-Jones et al. 2018)
Description: as §1, §2

hMPV081 = biological target: T4, hMPV081 (hMPV A, UniProt Q6WB98 19-102); experiment: BLI, no stress
T4 construct: T411C-Q434C, A140C-S149C, T365I
Description: as §1
(§3) Conformation integrity of hMPV A F protein mutants were evaluated by thermal stress experiments. Crude cell culture supernatants were normalized based on the results of the titer quantitation and then incubated for 1 hour at room temperature and two higher temperatures. […] Anti-Human IgG Fc Capture (AHC) biosensors were first equilibrated in PB before being dipped into more PB to establish the initial baseline. […] The mAb-bound biosensors were then dipped into the thermal stressed cell culture supernatants for 5 minutes. The kinetics analysis was done by OCTET data analysis software (version 12.0, Sartorius) based on curve fitting of the entire associate step.

hMPV A F WT Control = hMPV A F WT Control (hMPV A, UniProt Q6WB98 19-102); experiment: BLI, no stress
Description: as §1, §3

hMPV083 [2] = biological target: T5, hMPV083 (hMPV A, UniProt Q6WB98 19-102); experiment: BLI, no stress
T5 construct: T411C-Q434C, A140C-S149C, A459P, G239A, T49I, T365I
Description: as §1, §3

hMPV085 = biological target: T6, hMPV085 (hMPV A, UniProt Q6WB98 19-102); experiment: BLI, no stress
T6 construct: T411C-Q434C, L141C-A161C, A459P
Description: as §1, §3

hMPV090 = biological target: T7, hMPV090 (hMPV A, UniProt Q6WB98 19-102); experiment: BLI, no stress
T7 construct: T411C-Q434C, L141C-A161C, A459P, G239A, T49I, S149T, T365I
Description: as §1, §3

hMPV089 = biological target: T8, hMPV089 (hMPV A, UniProt Q6WB98 19-102); experiment: BLI, no stress
T8 construct: T411C-Q434C, L141C-A161C, S149T
Description: as §1, §3

hMPV086 [3] = biological target: T9, hMPV086 (hMPV A, UniProt Q6WB98 19-102); experiment: BLI, no stress
T9 construct: T411C-Q434C, L141C-A161C, T49I; also called hMP0086
Description: as §1, §3

hMPV097 [4] = biological target: T10, hMPV097 (hMPV A, UniProt Q6WB98 19-102); experiment: BLI, no stress
T10 construct: T411C-Q434C, E146C-T160C, A459P, G239A, T49I, S149T, T365I
Description: as §1, §3

hMPV078 [5] = biological target: T11, hMPV078 (hMPV A, UniProt Q6WB98 19-102); experiment: BLI, no stress
T11 construct: T411C-Q434C, A140C-S149C
Description: as §1, §3

hMPV087 = biological target: T12, hMPV087 (hMPV A, UniProt Q6WB98 19-102); experiment: BLI, no stress
T12 construct: T411C-Q434C, L141C-A161C, T365I
Description: as §1, §3

hMPV088 [6] = biological target: T13, hMPV088 (hMPV A, UniProt Q6WB98 19-102); experiment: BLI, no stress
T13 construct: T411C-Q434C, L141C-A161C, G239A
Description: as §1, §3

hMPV082 [7] = biological target: T14, hMPV082 (hMPV A, UniProt Q6WB98 19-102); experiment: BLI, no stress
T14 construct: T411C-Q434C, A140C-S149C, G239A
Description: as §1, §3

hMPV083 [8] = biological target: T5, hMPV083; experiment: BLI, 58C stress
Description: as §1, §3

hMPV079 = biological target: T15, hMPV079 (hMPV A, UniProt Q6WB98 19-102); experiment: BLI, 58C stress
T15 construct: T411C-Q434C, A140C-S149C, A459P
Description: as §1, §3

hMPV086 [9] = biological target: T9, hMPV086; experiment: BLI, 58C stress
Description: as §1, §3

hMPV097 [10] = biological target: T10, hMPV097; experiment: BLI, 58C stress
Description: as §1, §3

hMPV078 [11] = biological target: T11, hMPV078; experiment: BLI, 58C stress
Description: as §1, §3

hMPV088 [12] = biological target: T13, hMPV088; experiment: BLI, 58C stress
Description: as §1, §3

hMPV082 [13] = biological target: T14, hMPV082; experiment: BLI, 58C stress
Description: as §1, §3

hMPV084 = biological target: T16, hMPV084 (hMPV A, UniProt Q6WB98 19-102); experiment: BLI, 58C stress
T16 construct: T411C-Q434C, L141C-A161C
Description: as §1, §3

hMPV104 = biological target: T17, hMPV104 (hMPV B, UniProt Q6WB98 19-102); experiment: BLI, 53C stress
T17 construct: A459P
Description: (§4) All measurements were conducted at 30° C. temperature in 96-well black plates (Corning, Corning, NY) with a final volume of 240 μL per well at a constant agitation rate of 1000 RPM.
(§5) Conformation integrity of hMPV B F protein mutants were evaluated by a thermal stress experiment. Crude cell culture supernatants were normalized based on the results of the titer quantitation and then incubated for 1 hour at room temperature and two higher temperatures. For the testing of hMPV B single mutants, the two temperatures were 53° C. and 56° C. After the incubation, the protein mutants were probed with prefusion specific monoclonal antibody hMPV-2 by OCTET HTX. Anti-Human IgG Fc Capture (AHC) biosensors were first equilibrated in PB before being dipped into more PB for to establish the initial baseline. Biosensors were incubated with hMPV-2 before being equilibrated in PB to establish the experimental baseline. The mAb-bound biosensors were then dipped into the thermal stresses cell culture supernatants for 5 minutes.

hMPV100 = biological target: T18, hMPV100 (hMPV B, UniProt Q6WB98 19-102); experiment: BLI, 53C stress
T18 construct: T411C-Q434C
Description: as §4, §5

hMPV107 = biological target: T19, hMPV107 (hMPV B, UniProt Q6WB98 19-102); experiment: BLI, 53C stress
T19 construct: S149T
Description: as §4, §5

hMPV103 = biological target: T20, hMPV103 (hMPV B, UniProt Q6WB98 19-102); experiment: BLI, 53C stress
T20 construct: E146C-T160C
Description: as §4, §5

hMPV106 = biological target: T21, hMPV106 (hMPV B, UniProt Q6WB98 19-102); experiment: BLI, 53C stress
T21 construct: T49I
Description: as §4, §5

hMPV105 = biological target: T22, hMPV105 (hMPV B, UniProt Q6WB98 19-102); experiment: BLI, 53C stress
T22 construct: G239A
Description: as §4, §5

hMPV101 = biological target: T23, hMPV101 (hMPV B, UniProt Q6WB98 19-102); experiment: BLI, 53C stress
T23 construct: A140C-S149C
Description: as §4, §5

hMPV102 = biological target: T24, hMPV102 (hMPV B, UniProt Q6WB98 19-102); experiment: BLI, 53C stress
T24 construct: L141C-A161C
Description: as §4, §5

hMPV108 = biological target: T25, hMPV108 (hMPV B, UniProt Q6WB98 19-102); experiment: BLI, 53C stress
T25 construct: T365I
Description: as §4, §5

hMPV B F WT Control = hMPV B F WT Control (hMPV B, UniProt Q6WB98 19-102); experiment: BLI, 53C stress
Description: as §4, §5

B1: PIV1-8 mAb (antibody, V domains shown)
VH: QVQLVQSGAEVKKPGSSVKVSCEASGGTFSNYVISWVRQAPGQGLEWMGGIIPVFATAKYAQKFQGRVTIIADQSTNTAYLELSSLRSDDTAVYFCASVDSGGTWWDAFAIWGQGTMVTVSS
VL: QAVVTQPRSVSGSPGQAVTISCTGTSSDVGGYNYVSWYQHHPGKAPKLIIYDVTKRPSGVPDRFSGSKSGNTASLTISGLQTEYEADYYCCSYAGSYTLVFGGGTKLTVLG
notes: human IgG1; also called hPIV1-8 mAb; hPIV1-8
Response Shift (PIV1069): 0.819 nm | Response Shift (PIV1070): 0.859 nm | Response Shift [1]: 0.458 nm

B2: hMPV-2 mAb (antibody, V domains shown)
VH: QVQLQQSGAEVKKPGASVKVSCKASGYTFTSYGISWVRQAPGQGLEWMGWISGYNGNTNYAQTFQGTFTMTTDTSTSTAYMELRRLRSGDTAVYYCARDRYYASGSYNGMDVWGQGTTVTVSS
VL: QSALTQPPSASGAPGQRVTVSCSGSSSNVGSSSVYWYQQLPGTAPKLLIYRNNQRPSGVPDRFSGSKSGTSASLAISGLRSEDEADYYCAAWDDSLSGWVFGGGTKLTVLG
notes: human IgG1
Response Shift (hMPV081): 0.837 nm | Response Shift (hMPV A F WT Control): 0.898 nm | Response Shift (hMPV083 [2]): 0.847 nm | Response Shift (hMPV085): 0.766 nm | Response Shift (hMPV090): 0.895 nm | Response Shift (hMPV089): 0.891 nm | Response Shift (hMPV086 [3]): 0.851 nm | Response Shift (hMPV097 [4]): 0.923 nm | Response Shift (hMPV078 [5]): 0.86 nm | Response Shift (hMPV087): 0.867 nm | Response Shift (hMPV088 [6]): 0.878 nm | Response Shift (hMPV082 [7]): 0.854 nm | Response Shift (hMPV083 [8]): 0.822 nm | Response Shift (hMPV079): 0.736 nm | Response Shift (hMPV086 [9]): 0.735 nm | Response Shift (hMPV097 [10]): 0.905 nm | Response Shift (hMPV078 [11]): 0.769 nm | Response Shift (hMPV088 [12]): 0.492 nm | Response Shift (hMPV082 [13]): 0.804 nm | Response Shift (hMPV084): 0.183 nm | Response Shift (hMPV104): 0.336 nm | Response Shift (hMPV100): 0.854 nm | Response Shift (hMPV107): 0.846 nm | Response Shift (hMPV103): 0.588 nm | Response Shift (hMPV106): 0.828 nm | Response Shift (hMPV105): 0.785 nm | Response Shift (hMPV101): 0.716 nm | Response Shift (hMPV102): 0.572 nm | Response Shift (hMPV108): 0.802 nm | Response Shift (hMPV B F WT Control): 0.418 nm
